B1: Nce103ΔN13 (enzyme, S. cerevisiae, UniProt P53615 14-221, looked up)
chain: HNSNLQDILAANAKWASQMNNIQPTLFPDHNAKGQSPHTLFIGCSDSRYNENCLGVLPGEVFTWKNVANICHSEDLTLKATLEFAIICLKVNKVIICGHTDCGGIKTCLTNQREALPKVNCSHLYKYLDDIDTMYHEESQNLIHLKTQREKSHYLSHCNVKRQFNRIIENPTVQTAVQNGELQVYGLLYNVEDGLLQTVSTYTKVTPK
notes: Carbonic anhydrase Nce103 (β-class), S. cerevisiae strain S288C, ORF YNL036W, without the N-terminal 13 residues; residues His14 to Lys221; One zinc ion for each subunit; In the crystal the His tag, His14-Ser16 and Pro41-Gln48 are not seen in the density; also called truncated NCE103 without the N-terminal 13 residues; β-CA Nce103/YNL036W; source: for crystallization in 20 mM acetate buffer, pH …
B2: Nce103ΔN50 (enzyme, S. cerevisiae, UniProt P53615 51-221, looked up)
chain: HTLFIGCSDSRYNENCLGVLPGEVFTWKNVANICHSEDLTLKATLEFAIICLKVNKVIICGHTDCGGIKTCLTNQREALPKVNCSHLYKYLDDIDTMYHEESQNLIHLKTQREKSHYLSHCNVKRQFNRIIENPTVQTAVQNGELQVYGLLYNVEDGLLQTVSTYTKVTPK
notes: Carbonic anhydrase Nce103 (β-class), S. cerevisiae strain S288C, ORF YNL036W, residues His51-Lys221; the tag is probably N-terminal here too; also called truncated NCE103 without the N-terminal 50 residues

Assays:
[1] = target: the molecule itself; assay: crystal structure; Nce103ΔN13, hanging drop vapor diffusion at 16°C; 20% PEG4000, 0.1 M sodium citrate pH 5.6, 0.1 M sodium acetate, 20% ethylene glycol; two molecules in the asymmetric unit; 2.04 Å
[2] = target: the molecule itself; assay: not stated; oligomeric state in solution, noted during purification (Ni2+ affinity, Superdex 75 gel filtration); how it was determined is not told

| Protein | stoichiometry N [1] | stoichiometry N [2] |
| --- | --- | --- |
| B1 | 2 | – |
| B2 | – | 2 |
